# Test results: patent publication US20110047631A1, “HEAT SHOCK PROTEIN DEFICIENCIES AS MODEL SYSTEMS FOR BRAIN PATHOLOGY AND CANCER” (Medical College of Georgia Research Institute Inc., priority 2009, published 2011)
# Biological target: tau (total tau), endogenous mouse protein in brain extracts (mouse) (UniProt P10637)
# Experiment: immunoprecipitation with antibody to total tau, immunoblot for Chip; 8 months old against 6 weeks old mice
# Chain of tau (total tau), endogenous mouse protein in brain extracts (mouse) (P10637 other isoform, or with tags, fused parts or gaps limits assumed): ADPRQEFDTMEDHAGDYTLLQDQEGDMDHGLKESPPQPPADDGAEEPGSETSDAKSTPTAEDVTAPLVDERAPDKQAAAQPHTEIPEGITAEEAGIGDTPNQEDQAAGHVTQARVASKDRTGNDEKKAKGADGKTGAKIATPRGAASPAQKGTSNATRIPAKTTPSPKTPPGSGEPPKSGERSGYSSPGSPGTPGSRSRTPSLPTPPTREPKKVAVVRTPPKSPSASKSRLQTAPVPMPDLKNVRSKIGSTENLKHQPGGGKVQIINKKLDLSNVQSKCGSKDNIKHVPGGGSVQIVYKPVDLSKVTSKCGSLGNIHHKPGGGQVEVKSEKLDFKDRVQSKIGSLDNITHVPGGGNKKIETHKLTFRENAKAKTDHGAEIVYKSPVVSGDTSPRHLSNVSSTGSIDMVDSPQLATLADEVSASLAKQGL
substance,measurement,value
"Chip (C-terminal Hsp70-interacting protein) ubiquitin ligase, endogenous mouse protein in brain extracts (from UniProt Q9WUD1 1-304) (enzyme)",fold amount of Chip co-immunoprecipitated with tau in aged brain extracts,2 fold
